Results as given in the nanobody polyreactivity screen of Harvey et al. (2022).

Assay: yeast display, Sf9 membrane polyspecificity reagent, FACS + sequencing; frameworks hold sequencing errors
Procedure, shortened: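 A nanobody's polyreactivity label depends on the gate it was sorted from. Yeast display cells were stained with 10% biotinylated, detergent-solubilized Sf9 membrane reagent for 1 hour at 4 °C, enriched on streptavidin microbeads and sorted by FACS. The low and high (top ~1%) gates were set on anti-HA fluorescence for expression and streptavidin fluorescence for reagent binding.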

Row | Sequence | polyreactivity (PSR sort gate)
1 | QVQVVESGGGLVKAGGSLRISCAASGRSFGANVMGWYRQAPGKEREFVAAISSSGGSTYYADSVKGRFTISRDNAKNTVYLQMNSVKPEDTAVYYCAAGGWPYSGGWFFQPNYDYWGQGTQVTVSS | low polyreactivity
2 | QVQVVESGGGLVQAGASLRLSCAATGSIFVWNDMGGYRQAPGTEREFVAAITSGDGSTYYADSVKGRFTISRDNAKNTGYLQMNSLKPEDTAVYYCAARLRVTGFYSRTRFYWGQGTQVTVSS | low polyreactivity
3 | QVQVVESGGGLVQAGGSLRLRCAASGRIFAHYAMGWYRQAPGKEREMVAAISSSGTRTYYADSVKGRFTISRDNAKKTVYLQMNSLKPEDTAVYYCAKDSYHTVWGGYWGQGTQVTVSS | high polyreactivity
4 | QVQVVESGGGLVQAGGSLRLSCAASGFTFYPNAMGWYRQAPGKERELVATITGSGGSTNYADSVKGRFPISRDTAQNTVYLQMNSLKPEDTAVYYCAADYAVYSFTDFNYWGQGTQVTVSS | high polyreactivity
5 | QVQVVESGGGLVQAGGSLRLSCAASGGIFYGYAMGWYRQAPGKERELVAAITSNGGTTYYADSVKGRFTISRDNAKNTVYLQMNSLKPEDTAVYYCDAYFKDSGSYYYWGQGTQVNVSS | low polyreactivity
6 | QVQVVESGGGLVQAGGSLRLSCAASGRIFNYYAMGWYRPAPGKERELVATITGGGRTYYADSVKGRFTISRDNGMKTVYLQMNSLKPEDSAVYYCAAQYGGLSYRYDYWGQGTQVTVSS | high polyreactivity
7 | QVQVVESGGGLVQAGGSLRLSCAASGRTFDVYAMGWYRQAPGKERELVAAITERGSTYYADSVKRRFTISRDNAKNTDYLQMNSLKPVDTAVYDCAARTSGDGCIYYYWGQGTQVTVSS | high polyreactivity
8 | QVQVVESGGGLVQAGGSLRLSCAASGRTFNPNVMGWYRQAPGKERELVAAISRGGSTYYADSVKGLFTISRDNAKNTVYLQMNSLKPEDTAVYYCAATHYGHSISNWFDYWGQGTQVTVSS | high polyreactivity
9 | QVQVVESGGGLVQAGGSLRLSCAASGRTFRDNAMGWYRQAPGNERELVAAISRSGGRTYYADSVKGRCTISRDNAKNTVYLQMNSLKPEDTAVYYCAAYYYTAGDSSARYDYWGQGTQVTVSS | high polyreactivity
10 | QVQVVESGGGLVQAGGSLRLSCAASGRTFRSYAMVWYRQAPGKERELVASISRGASTNYADSVNGRFTISRDNSKNTVYLQRNSLKPEDTAVYYCAAKYSWGYTYYYWGQGTQVTVSS | high polyreactivity
11 | QVQVVESGGGLVQAGGSLRLSCAASGSTFSRNAMGWYRQAPGKERELVAAINYSGGITYYADSVKGRFTISRDNAKNTVYLQMNSQKPEDTAVYYCAAVATNVPTHGRPSRRAYDYWGQGTQVTVSS | low polyreactivity
12 | QVQVVESGGGLVQAGGSLRLSCAASGSTFVTYAMGWYRQARVKERELVAGISTGDITNYADSVKVRFTISRDNAKNTVYLQINRLKPEDTAVYYCSADLIQGAAPFRYDYWGQGTQVTVSS | low polyreactivity
13 | QVQVVESGGGLVQAGGSLRLSCAASGSTFYRYAMGWYRQAPGKERELVAAITRGGGRTYYADSVKGRFTISRDHAKNTVYLQMNSLKPEDSAVYYCNAASPYYDSWGQGTQVTVSS | high polyreactivity
14 | QVQVVESVGGLVHAGCSLRLSCAASGRTFISNAMGWYRQAPGKERELVATITYSDATTYYADSVKGRFTISRDNAKNTVYLQMNSLKPEDTAVYYCIAQSRSYDRYISAGRRYDYWGQGTQVTVSS | low polyreactivity
15 | QVQVVQSGGGLVQAGGSLRLSCAASGSIFVPNSMGWYRPPPGKERELVAAISLSGGSTYYADSVKGRFTISRDYARNTVYLQMTSLKPEDSAVYYCAADIFYYSSSYGYWGLGTQVTVSS | low polyreactivity
16 | QVRLVESCGGLVQAGGSLRLSCAASGITFQYNAMGWYRQAPGKERELVATIRRGGITKYADSVKGRFTISRDNAKNTVYLQMNSLKPEDTAVYYCNADWVWRYSSDFDYWGQGTQVTVSS | low polyreactivity
17 | QVRLVESGGGLVQAGGSLRLSCAASGSTFWSYAMGWYRQAPGKERELVAAISWSGDSTYYADSVKGRFTISRDNAKNTVYLQMNSLKPEDTAVYYCAADYTGSFYTYDYWGQGTQVTVSS | low polyreactivity
18 | QVRLVESGGGLVQAGGSLRLSSAASGRIFNGNAMGWYRQAPGKERELVAAINRGGSTNYADSVKGRFTISRDNAKNTVYLQMNSLKPEDTAVYYCAAELLYATRWRRYSGYYDWGQGTQVTVSS | high polyreactivity
19 | QVWLQESGGGLVQACGSLRLRCAASGTISRDIFMGWYRQAPGKEREFVATIAQGGITNYADSVKGRFTISRDNAKNTVYLQMNSVKPGDTAVYYCAARDGNCYWFYYLGQGTQVTVSS | high polyreactivity
20 | RFQLVESGGGLVQAGGSLRLSCAASGFTFRDYSMGGYRQAPGKERELVATISWGGASTSYADSVKGRFTISRDNAKNTVYLQMNSLKPEDTAVYYCNVRAQRRHGGYDHWGQGTLVTVSS | low polyreactivity
21 | RVQLQESGGGLVQAGGSLRLSCAASGTIFIRGDMGWYRQAPGKEREFVATIDTGSNTYYADSEKGRFTISRDNAKNAVSLQMICLKPGDTAVYYCVVDYQLSGRLRYWGQGTQVTLSS | low polyreactivity
22 | RVQLVESGGGLVQAGGSLRLSCAASGFTFRDYAMGWYRQAPGKERELVARIRIRDSNTYYADSVKGRFTISRDNAKNTVYLQMNSLKPEDTAVYYCAVVANYVYSKYDYWGQGTQVTVSS | low polyreactivity
23 | VQLVESGGGLVQAGGSLRLSCAASGFTFRWYAMGWYRQAPGKERELVAAISRGGNTNYADSVKGRFTISRDNANNTVYLQMNSLNPDDTAVYYCAAGHGSLRYNYWGQGSQVTVSS | high polyreactivity
24 | VQLVESGGGLVQAGVSLRLSCAASGSTFRPYAMGWYRQAPGKERELVAAITGSGGSTYYADSVKGRFTISRDNAKNTVYLQMNSLKPEDTAVYYCNAVSTWRYYYWGQGTQVTVSS | high polyreactivity
